Laboratory results as given in article PMC10876425.

Key:
[1] = target: Light-harvesting 2 (LH2) complex from Rhodobacter sphaeroides (Rhodobacter sphaeroides); test: FRET or BRET; fluorescence lifetime microscopy (TCSPC) of LH2 emission at 857 ± 3 nm after excitation at 485 nm; intact DOPC proteoliposomes (LH2 only, 2:1, 1:1, 0.5:1 LH2:RC-LH1); E = 1 - τDA/τD; values are averages for the whole system
[2] = target: Reaction-centre light-harvesting 1 (RC-LH1) complex from Rhodobacter sphaeroides, carotenoid-less (from the ΔcrtB strain) (Rhodobacter sphaeroides) (UniProt P0C0Y8); test: as above

Light-harvesting 2 (LH2) complex from Rhodobacter sphaeroides
LH2 fluorescence lifetime in LH2-only proteoliposomes [1]: 0.72 ns
LH2 fluorescence lifetime in proteoliposomes (0.5:1 LH2:RC-LH1) [2]: 0.37 ns
LH2 fluorescence lifetime in proteoliposomes (1:1 LH2:RC-LH1) [2]: 0.35 ns
LH2 fluorescence lifetime in proteoliposomes (2:1 LH2:RC-LH1) [2]: 0.43 ns
LH2→RC-LH1 energy transfer efficiency (0.5:1 LH2:RC-LH1) [2]: 49%
LH2→RC-LH1 energy transfer efficiency (1:1 LH2:RC-LH1) [2]: 51%
LH2→RC-LH1 energy transfer efficiency (2:1 LH2:RC-LH1) [2]: 40%
